We go through 1 molecule from article PMC5849677, “A novel C3d-containing oligomeric vaccine provides insight into the viability of testing human C3d-based vaccines in mice” (Immunobiology, 2018).

Assay [1] deals with T1, mC3d-Fc (mouse, UniProt P01027 1002-1303).
T1 construct: mouse complement C3, C3d fragment
Briefly: SPR; Biacore; hC3d or C3d(g)-Fc fusions immobilised by amine coupling (94.3-96.2 RU); Fc-fusion analytes 0.195-50 nM in HBS-EP+, physiological salt, 360 s injection; steady state affinity model; apparent KD. The note with it: both partners purified.

Assay [2] concerns the target T2, hC3dg (aa 955-1303)-Fc (human, UniProt P01024 955-1303).
T2 construct: human complement C3, C3dg fragment, aa 955-1303 (of pre-pro C3); also called hC3dg-Fc; hC3d with the g fragment attached
Described as above. The following applies: both partners purified.

T1 sequence (P01027 1002-1303): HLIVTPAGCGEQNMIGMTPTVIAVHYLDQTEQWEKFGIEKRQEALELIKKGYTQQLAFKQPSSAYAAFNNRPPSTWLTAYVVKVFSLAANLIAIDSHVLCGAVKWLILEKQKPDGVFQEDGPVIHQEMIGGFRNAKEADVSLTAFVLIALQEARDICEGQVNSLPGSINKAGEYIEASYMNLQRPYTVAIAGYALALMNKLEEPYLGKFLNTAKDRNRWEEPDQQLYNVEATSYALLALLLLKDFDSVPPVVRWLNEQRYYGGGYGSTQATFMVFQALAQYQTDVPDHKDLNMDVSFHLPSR
T2 sequence (P01024 955-1303): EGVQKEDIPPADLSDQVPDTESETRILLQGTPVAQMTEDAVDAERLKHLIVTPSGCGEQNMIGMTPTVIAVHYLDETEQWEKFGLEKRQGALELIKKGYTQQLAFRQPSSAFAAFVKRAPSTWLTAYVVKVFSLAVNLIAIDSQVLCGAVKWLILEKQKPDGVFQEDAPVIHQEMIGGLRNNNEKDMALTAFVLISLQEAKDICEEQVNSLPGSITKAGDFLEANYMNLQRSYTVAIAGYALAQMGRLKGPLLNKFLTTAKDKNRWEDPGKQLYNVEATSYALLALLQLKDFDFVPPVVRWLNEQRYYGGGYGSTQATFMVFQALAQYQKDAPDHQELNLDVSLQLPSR

B1: hCR2 (SCR1-4)-Fc (Fc fusion)
chain: ISCGSPPPILNGRISYYSTPIAVGTVIRYSCSGTFRLIGEKSLLCITKDKVDGTWDKPAPKCEYFNKYSSCPEPIVPGGYKIRGSTPYRHGDSVTFACKTNFSMNGNKSVWCQANNMWGPTRLPTCVSVFPLECPALPMIHNGHHTSENVGSIAPGLSVTYSCESGYLLVGEKIINCLSSGKWSAVPPTCEEARCKSLGRFPNGKVKEPPILRVGVTANFFCDEGYRLQGPPSSRCVIAGQGVAWTKMPVCEE
notes: human complement receptor 2, short consensus repeats 1-4; also called hCR2-Fc; soluble hCR2; source: CHO cells, transfected, purified from tissue culture supernatant
As for B1, in assay [1], the Kd turned out to be 1.47 ± 0.47 nM and the “fold higher affinity than for hC3d-Fc” value is 4 fold. Further, in assay [2], the Kd lay in the range of 3.1 to 5.1 nM.
